According to US20170119790A1, “Agents, Uses and Methods” (CYTOGUIDE A/S, priority 2009, published 2017):
“And” between values parts separate entries of the source, which are not always exact repeats. Identical values can stand only once.

Tests used:
[1] = target: T1, mouse CD163 1-5 wt (Mus musculus, UniProt Q2VLH6); experiment: Western blotting of mouse CD163 and knock in mutant; format: binding
T1 construct: CD163 domain 1-5 was used for expression of mouse CD163 domain 1-5/V5/His; made in house; host or cells: Lenti-X 293T, transient; captured from supernatant on Ni-NTA
Experimental: The mouse CD163 1-5 and the mouse CD163 domain 1 mutant were expressed transient in Lenti-X 293T cells as follows: 1.5 μg of the DNA was diluted in OptiCHOPro SFM (8 mM L-glutamine) to a total volume of 50 μl The DNA was gently mixed with 50 μl of OptiCHOPro SFM containing 1.5 μl Freestyle MAX transfection reagent (Invitrogen, Taastrup, Denmark). After 10 min of incubation at room temperature the complexes were added to 1×10^6 cells in 1 ml. Three days later, the cell supernatants were harvested by centrifugation.
Tris pH 8 buffer, and cell culture supernatants were added 60 μl of Ni-NTA His-bind resin slurry. After 1 hour shaking at 4° C. the supernatants were aspired and each of the purifications were eluted with 90 μl 50 mM Tris pH 8, 25 mM EDTA buffer.
90 μl of each of the eluates were added 30 μl of 4×LDS sample buffer. 20 μl samples of each supernatant and 8 μl SeeBlue plus2 prestained marker were loaded on NuPage 4-12% Bis-Tris-Gels (Invitrogen, Taastrup, Denmark) and the SDS-PAGEs were run with MOPS running buffer according to instructions of the manufacturer (200 V constant for 50 min). Blotting to PVDF membranes (Invitrogen, Taastrup, Denmark) was done on an iBLOT device according to instructions of the manufacturer. After blotting the membranes were washed briefly in 1×PBS 0.1% Tween and blocked for 30 min in 1×PBS 2% Tween at room temperature with shaking. […]

[2] = target: T2, CD163 on peripheral blood monocytes (Homo sapiens, UniProt Q86VB7); experiment: Quantitative flow cytometry of monocyte surface CD163 expression using different anti-CD163 mAb clones; format: cell-based
T2 construct: Freshly drawn peripheral whole blood samples or PBMC; endogenous in cells; host or cells: human peripheral blood monocytes, blood dendritic cells, monocyte-derived macrophages (healthy donors, buffy coats)
Experimental: EDTA, citrate, and heparin stabilized peripheral blood samples were obtained by standard venipuncture from healthy donors in Venoject® vacutainers (Terumo Europe NV, Leuven, Belgium). Peripheral blood mononuclear cells (PBMC) were isolated from leukocyte-rich buffy coats by gradient separation centrifugation using Accuspin System Histopaque®—1077 (Sigma-Aldrich Denmark A/S, Broendby, Denmark). Buffy coats were prepared from units of whole blood (approximately 472 ml) anti-coagulated with CPD-A (Baxter, Munich, Germany) donated by healthy volunteers. Approval for the study was obtained from the regional ethical committee (j.nr. 20040068).
Freshly drawn peripheral whole blood samples or PBMC (approx. 3×10^6 cells) were stained with isotype-matched control antibody or a relevant antibody for one hour at 4° C. in the dark. When staining whole blood, erythrocytes were lysed for 15 min with 4° C. cold solution of ammonium chloride. When indirect immunofluoresence staining was required, cells were initially incubated with unconjugated primary CD163 antibody for one hour at 4° C., washed three times with D-PBS, pH 7.4, followed by incubation with goat anti-mouse-conjugated Alexa-Fluor® 488 (1:200 dilution; Molecular Probes, Invitrogen, Carlsbad, Calif., USA) for one hour at 4° C. in the dark. The stained cells were washed twice three D-PBS, pH 7.4, re-suspended in 400 μl FACSflow (Becton Dickinson, San Jose, Calif., USA), and kept on ice until analysis. All samples were analyzed using a FACSCalibur flow cytometer and compensated for spectral overlap using FlowJo for Macintosh software version 8.3 (TreeStar, San Carlos, Calif.). For CD163 density quantitation, flow cytometric estimation of antibodies bound/cell (ABCs) was performed using Quantibrite PE beads (Becton Dickinson, San Jose, Calif., USA) as recommended by the manufacturer. After the cells were stained, as detailed, a set of 4 pre-calibrated fluorescently labeled beads was used for standardization before the samples were acquired. The Quantibrite PE beads were run at the same instrument settings as the assay, and the linear regression obtained using the Quantibrite PE beads was used to convert the FL2 linear fluorescence staining of cell population into the number of (CD163) PE molecules bound per cell (ABC).

[3] = PBMC isolated by density gradient centrifugation
[4] = Table 2, second column pair, head prints CITRATE
[5] = anticoagulant CITRATE, whole blood (Table 1, FIG. 2-3)
[6] = anticoagulant EDTA, whole blood (Table 1, FIG. 2-3)
[7] = anticoagulant HEPARIN, whole blood (Table 1, FIG. 2-3)
[8] = freshly drawn EDTA stabilized whole blood, FIG. 1

T2 sequence (Q86VB7 42-1156): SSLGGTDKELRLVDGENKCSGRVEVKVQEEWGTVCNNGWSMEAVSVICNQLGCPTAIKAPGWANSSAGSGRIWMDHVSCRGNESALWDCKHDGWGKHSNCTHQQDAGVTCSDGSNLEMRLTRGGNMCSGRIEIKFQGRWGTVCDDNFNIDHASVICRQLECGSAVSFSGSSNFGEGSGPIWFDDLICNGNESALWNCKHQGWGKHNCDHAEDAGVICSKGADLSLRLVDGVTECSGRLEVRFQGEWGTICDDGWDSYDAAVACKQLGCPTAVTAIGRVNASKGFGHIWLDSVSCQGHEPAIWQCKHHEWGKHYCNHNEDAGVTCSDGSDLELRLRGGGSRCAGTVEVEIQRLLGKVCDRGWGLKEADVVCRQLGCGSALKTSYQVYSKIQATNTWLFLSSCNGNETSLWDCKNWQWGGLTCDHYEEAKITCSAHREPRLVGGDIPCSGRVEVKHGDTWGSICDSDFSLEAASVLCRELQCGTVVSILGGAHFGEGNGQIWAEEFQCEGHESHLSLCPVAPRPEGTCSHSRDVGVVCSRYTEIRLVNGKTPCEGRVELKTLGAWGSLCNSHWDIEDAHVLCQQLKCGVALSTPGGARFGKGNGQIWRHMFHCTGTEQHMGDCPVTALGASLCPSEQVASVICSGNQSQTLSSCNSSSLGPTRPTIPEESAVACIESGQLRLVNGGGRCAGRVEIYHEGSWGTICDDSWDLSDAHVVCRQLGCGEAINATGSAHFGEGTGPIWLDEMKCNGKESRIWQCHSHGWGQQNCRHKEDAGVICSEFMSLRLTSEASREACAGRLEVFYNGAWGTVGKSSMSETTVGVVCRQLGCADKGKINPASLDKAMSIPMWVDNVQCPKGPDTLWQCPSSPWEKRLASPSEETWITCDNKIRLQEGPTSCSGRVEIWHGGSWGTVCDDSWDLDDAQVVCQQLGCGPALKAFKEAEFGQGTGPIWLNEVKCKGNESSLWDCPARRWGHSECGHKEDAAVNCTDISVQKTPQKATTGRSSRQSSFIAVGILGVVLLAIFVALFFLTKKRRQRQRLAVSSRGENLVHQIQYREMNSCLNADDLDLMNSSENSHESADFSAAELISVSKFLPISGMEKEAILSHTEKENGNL
T1 sequence (Q2VLH6 with tags, fused parts or gaps): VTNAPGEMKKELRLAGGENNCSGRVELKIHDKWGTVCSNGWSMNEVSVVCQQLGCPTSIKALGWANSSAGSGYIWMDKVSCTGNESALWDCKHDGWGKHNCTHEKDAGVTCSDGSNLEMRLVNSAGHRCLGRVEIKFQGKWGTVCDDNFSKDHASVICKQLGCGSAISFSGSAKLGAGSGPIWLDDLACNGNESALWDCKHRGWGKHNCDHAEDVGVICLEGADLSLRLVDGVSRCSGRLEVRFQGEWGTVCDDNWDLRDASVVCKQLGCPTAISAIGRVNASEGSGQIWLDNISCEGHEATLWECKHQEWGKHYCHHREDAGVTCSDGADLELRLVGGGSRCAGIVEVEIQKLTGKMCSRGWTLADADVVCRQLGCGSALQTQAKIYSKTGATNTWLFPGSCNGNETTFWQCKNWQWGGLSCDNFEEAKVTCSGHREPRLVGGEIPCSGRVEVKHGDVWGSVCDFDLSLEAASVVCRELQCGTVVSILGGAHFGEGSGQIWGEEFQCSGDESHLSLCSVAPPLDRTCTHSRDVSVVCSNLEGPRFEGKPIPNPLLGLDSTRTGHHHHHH

B1: MAC2-158: anti-human CD163 murine mAb, binds SRCR domain 1, IQ Products; VH SEQ ID NO: 1, VL SEQ ID NO: 2 (antibody, V domains shown)
VH: DVQLQESGPGLVKPSQSLSLTCTVTGYSITSDYAWNWIRQFPGNKLEWMGYITYSGITNYNPSLKSQISITRDTSKNQFFLQLNSVTTEDTATYYCVSGTYYFDYWGQGTTLTVSS
VL: SVVMTQTPKSLLISIGDRVTITCKASQSVSSDVAWFQQKPGQSPKPLIYYASNRYTGVPDRFTGSGYGTDFTFTISSVQAEDLAVYFCGQDYTSPRTFGGGTKLEIKRA
modifications: Mac2-158 VH; Mac2-158 VL
binding in western blot [1]: did not bind | density of CD163 receptors per monocyte [2, 3]: 11,417 | fraction of CD14+ monocytes stained for CD163 [2, 3]: 81.10% | % CD163+ monocytes ([2]; Table 2, first column pair, head prints EDTA): 84.48% | % CD163+ monocytes [2, 4]: 87.23% | CD163 density on monocytes [2, 4]: 17700 receptors/monocyte | % CD163+ monocytes ([2]; Table 2, third column pair, head prints HEPARIN): 83.97% | % CD163+ monocytes [2, 5]: 83.97% and 81.97% | CD163 density on monocytes [2, 5]: 17.726 | % CD163+ monocytes [2, 6]: 87.23% and 82.23% | CD163 density on monocytes [2, 6]: 17.725 | % CD163+ monocytes [2, 7]: 84.43% | CD163 density monocytes [2, 7]: 28.029 | density of CD163 receptors per monocyte [2, 8]: 17,725 | fraction of peripheral blood monocytes (CD14+) recognized [2, 8]: 84.06% | proportion of circulating CD163 expressing monocytes identified ([2]; summary statement): > 80%
